The results in this text go back to US20240383988A1.

Assay [1] has as its target human EGFR (human) (UniProt P00533). Nature of the assay: kinetics table of FIG. 2 (SPR is told in paragraph 123 for the other clones of the table); column head 10^-4 (s-1).
Assay [2] has the same target. Nature of the assay: kinetics table of FIG. 2 (SPR is told in paragraph 123 for the other clones of the table); column head 10^5 (s-1M-1).

B1: ER-2b (antibody, part only; not given: common light chain, V domains shown, part only)
VH: EVQLVESGGGLVQPGGSLRLSCAASGFNIYYAAMHWVRQAPGKGLEWVAFISPYYSYTSYADSVKGRFTISADTSKNTAYLQMNSLRAEDTAVYYCARYFHSSWYESSSPRAYYPGMDYWGQGTLVTVSS
Usually koff stands for a measure of how fast the partners let go of each other. Read a high koff as fast dissociation. What is called kon is a measure of how fast the partners come together. B1: the koff in assay [1] stood at 5e-05 s⁻¹. The kon in assay [2] amounted to 280000 M⁻¹ s⁻¹.
